From paper PMC4880445, “Structure of a Holliday junction complex reveals mechanisms governing a highly regulated DNA transaction” (eLife, 2016)

B1: bacteriophage λ Xis protein (natural protein, UniProt P03699 1-72, looked up)
chain: MYLTLQEWNARQRRPRSLETVRRWVRECRIFPPPVKDGREYLFHESAVKVDLNRPVTGGLLKRIRNGKKAKS
notes: Virally encoded accessory DNA-bending protein Xis of bacteriophage λ; The 18 C-terminal residues are missing from the model, as in the Xis-DNA crystal structures; also called Xis1.5
B2: bacteriophage λ integrase (Int) (enzyme)
chain: MGRRRSHERRDLPPNLYIRNNGYYCYRDPRTGKEFGLGRDRRIAITEAIQANIELFSGHKHKPLTARINSDNSVTLHSWLDRYEKILASRGIKQKTLINYMSKIKAIRRGLPDAPLEDITTKEIAAMLNGYIDEGKAASAKLIRSTLSDAFREAIAEGHITTNHVAATRAAKSEVRRSRLTADEYLKIYQAAESSPCWLRLAMELAVVTGQRVGDLCEMKWSDIVDGYLYVEQSKTGVKIAIPTALHIDALGISMKETLDKCKEILGGETIIASTRREPLSSGTVSRYFMRARKASGLSFEGDPPTFHELRSLSARLYEKQISDKFAQHLLGHKSDTMASQYRDDRGREWDKIEIK
notes: Integrase (Int) of bacteriophage λ, tyrosine recombinase; The model holds the NTD (residues 1-55), the NTD-CB linker (56-74) and the CB and catalytic domains (75-356); The NTD of Int-C is not in the model; also called site-specific recombinase; Int-B

Columns and labels:
[1] = biological target: B2; experiment: cryo-EM structure; excisive Holliday junction complex trapped by in vitro recombination of attL and attR (150 nM IHF, 350 nM Xis, 350 nM Int, 25 mM HEPES pH 7.5, room temperature); crosslinked with 0.0035% glutaraldehyde; purified on sucrose gradients; single particle map at about 11 Å; model built by fitting known crystal and NMR structures into the density; conditions: both partners purified
[2] = biological target: the molecule itself; experiment: as above

Row | Binder | binding result [1] | stoichiometry N [2]
1 | B1 | binds | –
2 | B2 | – | 4
